# Assay results published in IntAct's records for PubMed 15965486.
# Molecular target: vps35_mouse Vps35 (UniProt Q9EQH3)
row,effect of a mutation on the interaction,Substance
1,disrupting interaction strength,Vacuolar protein sorting-associated protein 29 (Mus musculus) (from UniProt Q9QZ88-1) I91S
2,decreasing interaction strength,Vacuolar protein sorting-associated protein 29 (Mus musculus) (from UniProt Q9QZ88-1) V90D
3,decreasing interaction strength,Vacuolar protein sorting-associated protein 29 (Mus musculus) (from UniProt Q9QZ88-1) N39D
